This is an account of results in patent US20140093973A1.

Values joined by “and” are separate entries in the source; they are usually repeats but may differ in a detail not shown here. Equal values may be shown once. Read-outs that look alike come from different tables or passages of the source. Ends that are not written are not given here. * marks the point of attachment. FITC = O=C1OC2(c3ccc(O)cc3Oc3cc(O)ccc32)c2ccc(NC(=S)*)cc21

Assay [1] deals with soluble HLA-A*0201 (sHLA-A*0201) (human).
The target is the same in assay [2]. Description: standardized FP competition against 1 nM FITC-P5, 50 ug/mL sHLA-A*0201, excess b2m.
For assay [3] the target is unchanged. This is another data set of the same source.
The target is the same in assay [4]. This is another data set of the same source.
The target is the same in assay [5]. This is another data set of the same source.
The target is the same in assay [6]. This is another data set of the same source.
For assay [7] the target is unchanged. This is another data set of the same source.
Assay [8] shares this target. The source holds these as a separate data set.
Assay [9] has the same target. The source holds these as a separate data set.
Assay [10] shares this target. This is another data set of the same source.
Assay [11] shares this target. This is another data set of the same source.
Assay [12] shares this target. This is another data set of the same source.
Assay [13] has the same target. This is another data set of the same source.
For assay [14] the target is unchanged. This is another data set of the same source.
The target is the same in assay [15]. This is another data set of the same source.
The target is the same in assay [16]. The source holds these as a separate data set.
Assay [17] has the same target. The source holds these as a separate data set.
The target is the same in assay [18]. The source holds these as a separate data set.
Assay [19] shares this target. Description: FP kinetics, Kd = koff/kon.
The target is the same in assay [20]. Description: FP equilibrium titration with variable pFITC, 425 nM sHLA-A*0201, 20 C.
For assay [21] the target is unchanged. Description: FP real-time association kinetics, 50 ug/mL sHLA-A*0201, excess b2m, 20 C.
Assay [22] shares this target. Description: FP real-time association kinetics, intercept of kob against ligand concentration.
Assay [23] shares this target. Description: FP, pFITC P4 titrated at 425 nM (20 µg/ml) sHLA-A*0201; FPmin = 27.00 mP.
The target is the same in assay [24]. Description: FP, sHLA-A*0201 titrated against 10 nM FITC-labeled P4, plateau of the fit.
Assay [25] has the same target. Description: FP saturation isotherm (bound against free pFITC), 425 nM sHLA-A*0201, one-site fit.
Assay [26] has the same target. Description: FP, sHLA-A*0201 titrated against 10 nM FITC-labeled P4; the EC50 is an sHLA concentration.

B1: … (peptide)
peptide: DLVHFASPL
modifications: not checked
B1: the IC50 (usually the concentration at which inhibition is half-maximal) in assay [1] was 366000 nM.

B2: … (peptide)
peptide: YLLPAIVHI
modifications: not checked
The molecule B2 displayed an IC50 in [2] of 510 nM.

B3: A*0201/P5, FITC-labeled peptide ALMDKVL-K(FITC)-V (peptide)
peptide: ALMDKVLK(FITC)V
B3: the Kd (commonly a measure of binding affinity in units of concentration) in [3] turned out to be 17.3 nM. In assay [4], this molecule had a % binding of 40%. This molecule also returned a maximal FP signal in assay [5] of 220 to 230 mP. Also, in assay [6], the increase of signal upon binding was over 900% and the maximum polarization signal worked out at 245 mP. Also, the EC50 – broadly, the concentration giving half of the maximal effect – in assay [7] is 327 nM. The FPmax in [8] amounted to 195 mP. In [9], this molecule returned a Bmax of 141 nM and a Kd of 17.3 nM.

B4: … (peptide)
peptide: KLGEFYNQMM
modifications: not checked
Turning to B4, the half-maximal inhibitory concentration (IC50) in assay [1] was 2820 nM; in assay [10], 2480 to 10500 nM; in assay [11], 596 nM; in assay [13], 3060 nM; in [15], 10500 nM; in assay [16], 2480 nM. For the same molecule, the IC50 in assay [17] is 2870 nM; in [18], 7670 nM. The log IC50 in [12] was 3.31 log nM and 3.7 log nM and 3.67 log nM; in assay [14], 3.08 log nM and 3.45 log nM.

B5: A*0201/P4, FITC-labeled peptide … (peptide)
peptide: LVFGKEVVEV
modifications: not fully specified
Take B5: the dissociation constant (Kd) in assay [19] was 28.5 nM; in assay [20], 21.8 nM; in assay [25], 21.8 nM. For the same molecule, the kon (commonly a measure of how fast the partners come together) in assay [21] is 9900 M⁻¹ s⁻¹. In addition, the koff (usually a measure of how fast the partners let go of each other) in assay [22] came out at 0.000284 s⁻¹. The values for the FPmax in assay [23] and in assay [24] were 200 mP and 230 mP, respectively. Moreover, the Bmax in [25] worked out at 89.7 nM. This molecule also showed an EC50 in assay [26] of 283 nM.
